Results: patent EP4537907A1 (Enthera S.r.l., dated 2025)

Tests used:
[1] = biological target: T1, mouse CD248 expressed on the cell membrane of transiently transfected HEK 293 cells (mouse, UniProt Q91V98 18-765); assay: flow cytometry on transiently transfected HEK 293 cells, secondary anti-human IgG, antibody concentration series
T1 construct: whole, on cells; also called mouse CD248+ cells
T1 sequence (looked up): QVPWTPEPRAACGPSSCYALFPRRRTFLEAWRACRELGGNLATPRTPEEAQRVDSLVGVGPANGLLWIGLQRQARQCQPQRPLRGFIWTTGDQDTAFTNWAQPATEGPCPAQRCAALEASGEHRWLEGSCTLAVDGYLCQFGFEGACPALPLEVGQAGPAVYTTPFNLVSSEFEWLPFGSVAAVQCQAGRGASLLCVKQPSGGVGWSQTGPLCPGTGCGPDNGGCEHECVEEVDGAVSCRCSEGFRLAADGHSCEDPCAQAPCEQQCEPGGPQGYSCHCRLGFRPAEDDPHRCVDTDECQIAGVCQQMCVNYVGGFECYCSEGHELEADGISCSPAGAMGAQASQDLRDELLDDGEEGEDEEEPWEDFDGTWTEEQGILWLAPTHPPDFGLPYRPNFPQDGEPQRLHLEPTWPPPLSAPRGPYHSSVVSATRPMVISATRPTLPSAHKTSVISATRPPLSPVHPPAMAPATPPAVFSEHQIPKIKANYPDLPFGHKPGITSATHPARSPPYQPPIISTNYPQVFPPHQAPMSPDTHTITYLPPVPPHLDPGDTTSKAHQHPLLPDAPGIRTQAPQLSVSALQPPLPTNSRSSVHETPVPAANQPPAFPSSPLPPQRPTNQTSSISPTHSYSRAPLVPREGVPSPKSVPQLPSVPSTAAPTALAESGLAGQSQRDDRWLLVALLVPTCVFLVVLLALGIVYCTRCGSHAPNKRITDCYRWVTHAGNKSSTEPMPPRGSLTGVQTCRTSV

[2] = biological target: T2, human CD248 expressed on the cell membrane of transiently transfected HEK 293 cells (human, UniProt Q9HCU0 18-757); assay: as above
T2 construct: whole, on cells; also called human CD248+ cells; CD248-positive cells
T2 sequence (looked up): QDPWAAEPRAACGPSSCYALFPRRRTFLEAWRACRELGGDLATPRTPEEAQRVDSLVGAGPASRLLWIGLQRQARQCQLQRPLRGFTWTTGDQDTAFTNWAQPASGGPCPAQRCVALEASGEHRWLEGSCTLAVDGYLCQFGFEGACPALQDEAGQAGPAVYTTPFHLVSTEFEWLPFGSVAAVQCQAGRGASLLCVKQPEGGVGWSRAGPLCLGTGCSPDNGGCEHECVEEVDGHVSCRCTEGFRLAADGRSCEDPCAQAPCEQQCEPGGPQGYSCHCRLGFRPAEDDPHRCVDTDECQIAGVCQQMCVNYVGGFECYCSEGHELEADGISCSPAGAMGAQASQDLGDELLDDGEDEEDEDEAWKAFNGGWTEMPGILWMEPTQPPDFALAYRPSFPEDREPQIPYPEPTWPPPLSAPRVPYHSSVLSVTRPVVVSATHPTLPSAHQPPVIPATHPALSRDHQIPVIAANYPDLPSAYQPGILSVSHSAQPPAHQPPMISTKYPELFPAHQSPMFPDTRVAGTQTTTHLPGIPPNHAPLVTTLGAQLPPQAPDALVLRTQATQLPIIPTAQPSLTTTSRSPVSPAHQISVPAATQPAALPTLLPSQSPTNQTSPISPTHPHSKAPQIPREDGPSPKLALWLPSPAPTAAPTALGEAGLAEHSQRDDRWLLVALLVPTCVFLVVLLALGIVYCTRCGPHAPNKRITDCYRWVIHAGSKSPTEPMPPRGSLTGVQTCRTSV

[3] = biological target: T3, recombinant human CD248 (internally produced) (human, UniProt Q9HCU0 18-687, limits assumed, biotinylated in the inhibition ELISA); assay: BLI (Octet platform, BLItz System), mAb captured via Fc on AHC biosensor, soluble antigen at different concentrations
T3 construct: Soluble recombinant protein; also called human recombinant CD248; biotinylated CD248 (internally produced)
T3 sequence (looked up): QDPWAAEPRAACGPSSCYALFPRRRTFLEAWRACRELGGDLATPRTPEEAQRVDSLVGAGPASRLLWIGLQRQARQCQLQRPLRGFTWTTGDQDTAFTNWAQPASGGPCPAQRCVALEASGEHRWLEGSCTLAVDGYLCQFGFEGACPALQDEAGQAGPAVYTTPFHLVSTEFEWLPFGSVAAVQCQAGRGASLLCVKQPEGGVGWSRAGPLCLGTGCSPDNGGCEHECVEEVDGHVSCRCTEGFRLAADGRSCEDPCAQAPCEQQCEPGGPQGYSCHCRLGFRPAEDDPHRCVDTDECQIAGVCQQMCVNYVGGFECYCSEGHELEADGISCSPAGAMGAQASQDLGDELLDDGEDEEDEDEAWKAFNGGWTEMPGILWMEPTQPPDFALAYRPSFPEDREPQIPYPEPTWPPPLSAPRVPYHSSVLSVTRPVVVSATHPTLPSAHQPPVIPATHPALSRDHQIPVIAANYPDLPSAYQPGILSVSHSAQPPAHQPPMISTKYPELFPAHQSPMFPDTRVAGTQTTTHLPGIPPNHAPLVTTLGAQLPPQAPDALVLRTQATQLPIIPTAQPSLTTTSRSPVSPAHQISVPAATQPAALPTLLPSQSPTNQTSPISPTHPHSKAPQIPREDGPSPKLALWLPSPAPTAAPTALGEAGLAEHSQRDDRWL

[4] = biological target: T4, recombinant mouse CD248 (internally produced) (mouse, UniProt Q91V98 18-695, limits assumed); assay: as above
T4 construct: also called murine recombinant CD248; Murine CD248
T4 sequence (looked up): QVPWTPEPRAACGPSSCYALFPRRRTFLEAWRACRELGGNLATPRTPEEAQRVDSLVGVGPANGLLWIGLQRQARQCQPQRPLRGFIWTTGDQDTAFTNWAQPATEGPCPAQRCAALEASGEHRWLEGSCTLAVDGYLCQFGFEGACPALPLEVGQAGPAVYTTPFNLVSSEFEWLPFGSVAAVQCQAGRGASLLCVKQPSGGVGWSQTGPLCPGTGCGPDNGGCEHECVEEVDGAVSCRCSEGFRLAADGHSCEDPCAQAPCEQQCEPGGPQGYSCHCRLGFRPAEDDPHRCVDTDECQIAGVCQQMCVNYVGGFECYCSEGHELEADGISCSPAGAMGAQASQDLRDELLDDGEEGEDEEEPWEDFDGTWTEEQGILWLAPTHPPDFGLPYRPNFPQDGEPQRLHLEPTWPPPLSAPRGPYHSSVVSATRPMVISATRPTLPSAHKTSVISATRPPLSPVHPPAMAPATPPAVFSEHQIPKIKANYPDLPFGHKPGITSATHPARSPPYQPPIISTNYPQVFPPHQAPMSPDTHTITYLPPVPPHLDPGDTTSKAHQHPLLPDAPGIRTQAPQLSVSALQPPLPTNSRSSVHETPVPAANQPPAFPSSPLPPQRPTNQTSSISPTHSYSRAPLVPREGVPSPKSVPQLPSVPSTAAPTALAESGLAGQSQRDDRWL

[5] = biological target: T5, irrelevant antigen expressed on HEK 293 cells after transient transfection (human); assay: flow cytometry on HEK 293 cells transiently transfected with an irrelevant antigen (negative control), secondary anti-human IgG
T5 construct: Negative control antigen; also called irrelevant human antigen; irrelevant Ag+ cells

[6] = biological target: T3, recombinant human CD248 (internally …); assay: competition ELISA: purified IgG4 (S228P/L235E) with biotinylated human CD248, added to immobilised human IGFBP5, Streptavidin-HRP

Binder	EC50 [1]	EC50 [2]	Kd [3]	Kd [4]	EC50 [5]	IC50 [6]
YU1023-A02 (antibody, human IgG4, V domains shown, Tested as full human IgG4 carrying the S228P/L235E mutations; also called YU1023-A02 mAb) VH: QVQLVESGPGLVKPSQTLSLTCTVSGGSISSGGYYWSWIRQHPGKGLEWIGYIYYSGSTYYNPSLKSRVTISVDTSKNQFSLKLSSVTAADTAVYYCARVRGRSATYFDYWGQGTTVTVSS VL: QSVLTQPPSVSGAPGQRVTISCTGSSSNIGAGYDVRWYQQLPGTAPKLLIYANNNRPSGVPDRFSGSKSGTSASLAITGLQTEDEADYYCQSYDISLSGSLFGGGTKLTVL	0.0388 µg/mL	0.0523 µg/mL	9.94 nM	10.1 nM	3.16 µg/mL	20.8 µg/mL
YU1024-G01 (antibody, human IgG4, V domains shown, Tested as full human IgG4 carrying the S228P/L235E mutations) VH: QVQLQESGGGVVQPGRSLRLSCAASGFTFSSYAMHWVRQAPGKGLEWVAVISYDGSNKYYADSVKGRFTISRDNSKNTLYLQMNSLRAEDTAVYYCARNNHPRGERLPQYWGQGTLVTVSS VL: DIQLTQSPSSLSASVGDRVTITCRASQSVGSYLNWYQHKPGKAPKLLIYVASRLQSGVPSRFSGSGSGTDFTLTINSLQPEDFATYYCQQSYSTPLTFGGGTKVEIK	~0.00985 µg/mL	0.0121 µg/mL	3.78 nM	3.91 nM	2.11 µg/mL	4.7 µg/mL
YU1023-B03 (antibody, human IgG4, V domains shown, Tested as full human IgG4 carrying the S228P/L235E mutations) VH: not shown VL: DVVMTQSPLSLPVTPGEPASISCRSSQSLLHSNGYNYLDWYVQKPGQSPQRLIYFTSNRASGVPDRFSGSGSGTDFTLKISRVEAEDVGVYYCMQSIQLPRTFGQGTKVEIK	0.0184 µg/mL	0.0401 µg/mL	18.6 nM	7.99 nM	3.66 µg/mL	47.6 µg/mL
YU1023-E03 (antibody, human IgG4, V domains shown, Tested as full human IgG4 carrying the S228P/L235E mutations; It was scarcely produced (<0.1 mg/ml)) VH: EVQLLESGGGVVQPGRSLRLSCAASGFTFSSYAMHWVRQAPGKGLEWVAVISYDGSNKYYADSVKGRFTISRDNSKNTLYLQMNSLRAEDTAVYYCARSIAAAGTRWFDPWGQGTLVTVSS VL: DIQLTQSPSSVSASVGDRVTITCRASQGISSWLAWYQQKPGKAPKLLIYAASSLQSGVPSRFSGSGSGTDFTLTISSLQPEDFATYYCQQANSFPLTFGGGTKLEIK	0.891 µg/mL	1.49 µg/mL			3.84 µg/mL	17.4 µg/mL
YU1025-B07 (antibody, V domains shown, Tested as full human IgG4 carrying the S228P/L235E mutations) VH: QVQLVQSGGGVVQPGRSLRLSCAASGFTFSSYAMHWVRQAPGKGLEWVAVISYDGSNKYYADSVKGRFTISRDNSKNTLYLQMNSLRAEDTAVYYCARTKARWFGVTTYMDVWGKGTLVTVSS VL: not shown	0.0216 µg/mL	0.0236 µg/mL	11.7 nM	14.2 nM	1.68 µg/mL	19.2 µg/mL
